doi:10.1101/2022.11.01.514793

How the values were obtained:
AdgH (Variovorax) [1] = test: cryo-EM structure
AdgH (Variovorax) [2] = test: SEC
AdgI (Variovorax) = test: cryo-EM structure

Row | stoichiometry N (AdgH (Variovorax) [1]) | stoichiometry N (AdgI:AdgH molar ratio) (AdgH (Variovorax) [2]) | stoichiometry N (AdgI (Variovorax)) | Substance
1 | 3 | – | – | AdgH (enzyme)
2 | – | 1 | 3 | AdgI (enzyme)
